This is an account of results in PMC8233153, “Peters plus syndrome mutations affect the function and stability of human β1,3-glucosyltransferase” (The Journal of Biological Chemistry, 2021).

B1: B3GLCTΔREEL (human B3GLCT without REEL motif) (Homo sapiens) (protein)
chain: SEDTKKEVKQSQDLEKSGISRKNDIDLKGIVFVIQSQSNSFHAKRAEQLKKSILKQAADLTQELPSVLLLHQLAKQEGAWTILPLLPHFSVTYSRNSSWIFFCEEETRIQIPKLLETLRRYDPSKEWFLGKALHDEEATIIHHYAFSENPTVFKYPDFAAGWALSIPLVNKLTKRLKSESLKSDFTIDLKHEIALYIWDKGGGPPLTPVPEFCTNDVDFYCATTFHSFLPLCRKPVKKKDIFVAVKTCKKFHGDRIPIVKQTWESQASLIEYYSDYTENSIPTVDLGIPNTDRGHCGKTFAILERFLNRSQDKTAWLVIVDDDTLISISRLQHLLSCYDSGEPVFLGERYGYGLGTGGYSYITGGGGMVFSREAVRRLLASKCRCYSNDAPDDMVLGMCFSGLGIPVTHSPLFHQARPVDYPKDYLSHQVPISFHKHWNIDPVKVYFTWLAPSDEDKARQETQKGF
notes: secreted from pSecTag2/HygroC, C-terminal Myc-His6 tag kept; native signal peptide replaced by vector signal; C-terminal ER-retention motif REEL (last 4 of 498 residues) removed; forward primer starts near SEDTKKEV; HEK293T medium, Ni-NTA
B2: B3GLCTΔREEL (human B3GLCT without REEL motif) (Homo sapiens; V245M) (protein)
chain: SEDTKKEVKQSQDLEKSGISRKNDIDLKGIVFVIQSQSNSFHAKRAEQLKKSILKQAADLTQELPSVLLLHQLAKQEGAWTILPLLPHFSVTYSRNSSWIFFCEEETRIQIPKLLETLRRYDPSKEWFLGKALHDEEATIIHHYAFSENPTVFKYPDFAAGWALSIPLVNKLTKRLKSESLKSDFTIDLKHEIALYIWDKGGGPPLTPVPEFCTNDMDFYCATTFHSFLPLCRKPVKKKDIFVAVKTCKKFHGDRIPIVKQTWESQASLIEYYSDYTENSIPTVDLGIPNTDRGHCGKTFAILERFLNRSQDKTAWLVIVDDDTLISISRLQHLLSCYDSGEPVFLGERYGYGLGTGGYSYITGGGGMVFSREAVRRLLASKCRCYSNDAPDDMVLGMCFSGLGIPVTHSPLFHQARPVDYPKDYLSHQVPISFHKHWNIDPVKVYFTWLAPSDEDKARQETQKGF
notes: as for B1
B3: B3GLCTΔREEL (human B3GLCT without REEL motif) (Homo sapiens; R337H) (protein)
chain: SEDTKKEVKQSQDLEKSGISRKNDIDLKGIVFVIQSQSNSFHAKRAEQLKKSILKQAADLTQELPSVLLLHQLAKQEGAWTILPLLPHFSVTYSRNSSWIFFCEEETRIQIPKLLETLRRYDPSKEWFLGKALHDEEATIIHHYAFSENPTVFKYPDFAAGWALSIPLVNKLTKRLKSESLKSDFTIDLKHEIALYIWDKGGGPPLTPVPEFCTNDVDFYCATTFHSFLPLCRKPVKKKDIFVAVKTCKKFHGDRIPIVKQTWESQASLIEYYSDYTENSIPTVDLGIPNTDRGHCGKTFAILERFLNHSQDKTAWLVIVDDDTLISISRLQHLLSCYDSGEPVFLGERYGYGLGTGGYSYITGGGGMVFSREAVRRLLASKCRCYSNDAPDDMVLGMCFSGLGIPVTHSPLFHQARPVDYPKDYLSHQVPISFHKHWNIDPVKVYFTWLAPSDEDKARQETQKGF
notes: as for B1
B4: B3GLCTΔREEL (human B3GLCT without REEL motif) (Homo sapiens; T179S) (protein)
chain: SEDTKKEVKQSQDLEKSGISRKNDIDLKGIVFVIQSQSNSFHAKRAEQLKKSILKQAADLTQELPSVLLLHQLAKQEGAWTILPLLPHFSVTYSRNSSWIFFCEEETRIQIPKLLETLRRYDPSKEWFLGKALHDEEATIIHHYAFSENPSVFKYPDFAAGWALSIPLVNKLTKRLKSESLKSDFTIDLKHEIALYIWDKGGGPPLTPVPEFCTNDVDFYCATTFHSFLPLCRKPVKKKDIFVAVKTCKKFHGDRIPIVKQTWESQASLIEYYSDYTENSIPTVDLGIPNTDRGHCGKTFAILERFLNRSQDKTAWLVIVDDDTLISISRLQHLLSCYDSGEPVFLGERYGYGLGTGGYSYITGGGGMVFSREAVRRLLASKCRCYSNDAPDDMVLGMCFSGLGIPVTHSPLFHQARPVDYPKDYLSHQVPISFHKHWNIDPVKVYFTWLAPSDEDKARQETQKGF
notes: as for B1
B5: B3GLCTΔREEL (human B3GLCT without REEL motif) (Homo sapiens; Q457R) (protein)
chain: SEDTKKEVKQSQDLEKSGISRKNDIDLKGIVFVIQSQSNSFHAKRAEQLKKSILKQAADLTQELPSVLLLHQLAKQEGAWTILPLLPHFSVTYSRNSSWIFFCEEETRIQIPKLLETLRRYDPSKEWFLGKALHDEEATIIHHYAFSENPTVFKYPDFAAGWALSIPLVNKLTKRLKSESLKSDFTIDLKHEIALYIWDKGGGPPLTPVPEFCTNDVDFYCATTFHSFLPLCRKPVKKKDIFVAVKTCKKFHGDRIPIVKQTWESQASLIEYYSDYTENSIPTVDLGIPNTDRGHCGKTFAILERFLNRSQDKTAWLVIVDDDTLISISRLQHLLSCYDSGEPVFLGERYGYGLGTGGYSYITGGGGMVFSREAVRRLLASKCRCYSNDAPDDMVLGMCFSGLGIPVTHSPLFHQARPVDYPKDYLSHRVPISFHKHWNIDPVKVYFTWLAPSDEDKARQETQKGF
notes: as for B1

One may read the Km as the concentration of substrate that gives half-maximal velocity. The Vmax is the top rate of the reaction or transport when substrate is in excess. As usually defined, the kcat is the number of substrate molecules converted per active site and unit of time at saturation.

One data set has as its target O-fucosylated TSR3 from human thrombospondin-1 (Fuc-O-TSR3) (human).
Test: not given
Settings: not given
Regarding “human B3GLCTΔREEL V245M (PTRPLS-like mutant) (from UniProt Q6Y288 1-498) (enzyme)”, the K (half) (μM) for the acceptor substrate Fuc-O-TSR3 in the in vitro glucosyltransferase assay (UDP-Glo; allosteric sigmoidal fit) was determined as 6.64 µM.

Molecule “human B3GLCTΔREEL T179S (PTRPLS-like mutant) (from UniProt Q6Y288 1-498) (enzyme)” gave a K (half) (μM) for the acceptor substrate Fuc-O-TSR3 in the in vitro glucosyltransferase assay (UDP-Glo; allosteric sigmoidal fit) of 8.04 µM.

Consider “human B3GLCTΔREEL R337H (PTRPLS-like mutant) (from UniProt Q6Y288 1-498) (enzyme)”, for which the K (half) (μM) for the acceptor substrate Fuc-O-TSR3 in the in vitro glucosyltransferase assay (UDP-Glo; allosteric sigmoidal fit) amounted to 6.65 µM.

In turn, “human B3GLCT with the REEL motif removed (B3GLCTΔREEL), wild type (from UniProt Q6Y288 1-498) (enzyme)” had a K (half) (μM) for the acceptor substrate Fuc-O-TSR3 in the in vitro glucosyltransferase assay (UDP-Glo; allosteric sigmoidal fit) of 8.9 µM.

With “human B3GLCTΔREEL Q457R (PTRPLS-like mutant) (from UniProt Q6Y288 1-498) (enzyme)”, the K (half) (μM) for the acceptor substrate Fuc-O-TSR3 in the in vitro glucosyltransferase assay (UDP-Glo; allosteric sigmoidal fit) was 5.73 µM.

Substrate in the next data set: O=c1ccn([C@@H]2O[C@H](CO[P@@](=O)(O)O[P@@](=O)(O)O[C@H]3O[C@H](CO)[C@@H](O)[C@H](O)[C@H]3O)[C@@H](O)[C@H]2O)c(=O)[nH]1
Put plainly: UDP-Glo glycosyltransferase assay (UDP release, luminescence), Michaelis-Menten fit. Type of data set: biochemical. To be noted: donor varied, acceptor Fuc-O-TSR3 (human thrombospondin-1 TSR3), 50 mM Tris/HCl pH 7.5, 37 °C, 20 min, no metal added. From the text: UDP-Glo glycosyltransferase assay (UDP release, luminescence), Michaelis-Menten fit on B3GLCTΔREEL (human B3GLCT without REEL motif)
Take B1: the Michaelis-Menten constant (Km) was determined as 25.47 µM, the Vmax was found to be 0.0432 µmol/min/mg and the kcat was 0.0403 s⁻¹.

As to B2, the Km turned out to be 18.74 µM, the Vmax came out at 0.0246 µmol/min/mg and the kcat stood at 0.023 s⁻¹.

In the case of B3, the Km was 21.89 µM, the Vmax was 0.0277 µmol/min/mg and the kcat came to 0.0258 s⁻¹.

With B4, the Km is 20.94 µM, the Vmax stood at 0.0324 µmol/min/mg and the kcat is 0.0303 s⁻¹.

Regarding B5, the Km worked out at 17.39 µM, the Vmax was found to be 0.0236 µmol/min/mg and the kcat amounted to 0.022 s⁻¹.
